Columns and labels:
[1] = biological target: antibodies against ISV in serum sample IHUS#B09032311A1; test: ECL drug-displacement assay vs labelled SEQ ID NO:1
[2] = biological target: antibodies against ISV in serum sample IHUS#B09032311A20; test: as above
[3] = biological target: antibodies against ISV in serum sample IHUS#B09032311A3; test: as above
[4] = biological target: affinity purified antibody IHuP#002-001-ABL-08; test: bridging/competition ADA assay, 10 ug/ml ISV vs labelled ISV
[5] = biological target: analytical polyclonal antibody generated in Example 2; test: SPR Biacore T100, polyclonal immobilized, 500 nM ISV

Row | % reduction [1] | ECLU confirmatory assay [1] | % reduction [2] | ECLU confirmatory assay [2] | % reduction [3] | ECLU confirmatory assay [3] | % reduction [4] | ECLU confirmatory assay [4] | Binding (RU) at end of injection [5] | Binder
1 |  |  |  |  |  |  | 89.1% | 319 ECLU |  | SEQ ID NO: 27, Wildtype VHH + A14P + K83R + Q108L (VHH) VHH: EVQLVESGGGLVQPGGSLRLSCAASGRTFNNYAMGWFRRAPGKEREFVAAITRSGVRSGVSAIYGDSVKDRFTISRDNAKNTLYLQMNSLRPEDTAVYTCAASAIGSGALRRFEYDYSGQGTLVTVSS
2 | 10% | 56 ECLU | 96% | 668 ECLU | 91% | 205 ECLU | 90.8% | 268 ECLU |  | SEQ ID NO: 24, Wildtype VHH + A14P (VHH) VHH: EVQLVESGGGLVQPGGSLRLSCAASGRTFNNYAMGWFRRAPGKEREFVAAITRSGVRSGVSAIYGDSVKDRFTISRDNAKNTLYLQMNSLKPEDTAVYTCAASAIGSGALRRFEYDYSGQGTQVTVSS
3 |  |  |  |  | 18% |  | 58.6% | 1210 ECLU |  | SEQ ID NO: 29, Wildtype VHH + A14P + R39Q + K83R + T91Y + Q108L + 1 additional A at C-terminus (A114) (VHH) VHH: EVQLVESGGGLVQPGGSLRLSCAASGRTFNNYAMGWFRQAPGKEREFVAAITRSGVRSGVSAIYGDSVKDRFTISRDNAKNTLYLQMNSLRPEDTAVYYCAASAIGSGALRRFEYDYSGQGTLVTVSS
4 |  |  |  |  | 13% |  | -13.1% | 3300 ECLU |  | SEQ ID NO: 30, Wildtype VHH + A14P + R39Q + K83R + T91Y + Q108L + 3 A's at C-terminus (A114 + A115 + A116) (VHH) VHH: EVQLVESGGGLVQPGGSLRLSCAASGRTFNNYAMGWFRQAPGKEREFVAAITRSGVRSGVSAIYGDSVKDRFTISRDNAKNTLYLQMNSLRPEDTAVYYCAASAIGSGALRRFEYDYSGQGTLVTVSS
5 | 5% | 59 ECLU | 62% | 6990 ECLU | 31% | 1530 ECLU | 13.2% | 2530 ECLU |  | SEQ ID NO: 26, Wildtype VHH + Q108L (VHH) VHH: EVQLVESGGGLVQAGGSLRLSCAASGRTFNNYAMGWFRRAPGKEREFVAAITRSGVRSGVSAIYGDSVKDRFTISRDNAKNTLYLQMNSLKPEDTAVYTCAASAIGSGALRRFEYDYSGQGTLVTVSS
6 |  |  |  |  | 90% |  | 91.4% | 251 ECLU |  | SEQ ID NO: 28, Wildtype VHH + A14P + R39Q + K83R + T91Y + Q108L (VHH) VHH: EVQLVESGGGLVQPGGSLRLSCAASGRTFNNYAMGWFRQAPGKEREFVAAITRSGVRSGVSAIYGDSVKDRFTISRDNAKNTLYLQMNSLRPEDTAVYYCAASAIGSGALRRFEYDYSGQGTLVTVSS
7 | 1% | 62 ECLU | 63% | 6910 ECLU | 37% | 1400 ECLU | 15.7% | 2460 ECLU |  | SEQ ID NO: 25, Wildtype VHH + K83R (VHH) VHH: EVQLVESGGGLVQAGGSLRLSCAASGRTFNNYAMGWFRRAPGKEREFVAAITRSGVRSGVSAIYGDSVKDRFTISRDNAKNTLYLQMNSLRPEDTAVYTCAASAIGSGALRRFEYDYSGQGTQVTVSS

The next lines start with the binder.

Row | Binder | % reduction [1] | ECLU confirmatory assay [1] | % reduction [2] | ECLU confirmatory assay [2] | % reduction [3] | ECLU confirmatory assay [3] | % reduction [4] | ECLU confirmatory assay [4] | Binding (RU) at end of injection [5]
8 | SEQ ID NO: 23, Wildtype VHH (VHH) VHH: EVQLVESGGGLVQAGGSLRLSCAASGRTFNNYAMGWFRRAPGKEREFVAAITRSGVRSGVSAIYGDSVKDRFTISRDNAKNTLYLQMNSLKPEDTAVYTCAASAIGSGALRRFEYDYSGQGTQVTVSS | 4% | 60 ECLU | 53% | 8680 ECLU | 20% | 1780 ECLU | 7.3% | 2710 ECLU | 
9 | NB 3.12 (VHH) VHH: EVQLVESGGGLVQAGGSLRLSCAASRSIGRLDRMGWYRHRPGEPRELVATITGGSSINYGDSVKGRFTISIDNSKNTVYLQMNSLRPEDTAVYYCNFNKYVTSRDTWGQGTQVTVSS |  |  |  |  |  |  |  |  | 86 RU
10 | NB 3.10 (VHH) VHH: EVQLVESGGGLVQAGGSLRLSCAASRSIGRLDRMGWYRHRPGEPRELVATITGGSSINYGDSVKGRFTISIDNSKNTVYLQMNSLRPEDTAVYYCNFNKYVTSRDTWGQGTLVTVSS |  |  |  |  |  |  |  |  | 91 RU
11 | NB 3.11 (VHH) VHH: EVQLVESGGGLVQPGGSLRLSCAASRSIGRLDRMGWYRHRPGEPRELVATITGGSSINYGDSVKGRFTISIDNSKNTVYLQMNSLKPEDTAVYYCNFNKYVTSRDTWGQGTLVTVSS |  |  |  |  |  |  |  |  | 88 RU
12 | NB 3.15 (VHH) VHH: EVQLVESGGGSVQPGGSLRLSCAASRSIGRLDRMGWYRHRPGEPRELVATITGGSSINYGDSVKGRFTISIDNSKNTVYLQMNSLRPEDTAVYYCNFNKYVTSRDTWGQGTLVTVSS |  |  |  |  |  |  |  |  | 22 RU
13 | NB 3.14 (VHH) VHH: EVQLVESGGGLVQPGGSLRLSCAASRSIGRLDRMGWYRHRPGEPRELVATITGGSSINYGDSVKGRFTISIDNSKNTVYLQMNSLRPEDTAVYYCNFNKYVTSRDTWGQGTLVQVSS |  |  |  |  |  |  |  |  | 79 RU
14 | NB 3.13 (VHH) VHH: EVQLVESGGGLVQPGGSLRLSCAASRSIGRLDRMGWYRHRPGEPRELVATITGGSSINYGDSVKGRFTISIDNSKNTVYLQMNSLRPEDTAVYYCNFNKYVTSRDTWGQGTQVTVSS |  |  |  |  |  |  |  |  | 90 RU

From US20200216532A1
